# From article PMC2900185 (Biochemistry, 2010)
# Assays:
# [1] = biological target: Ste2p (R58A) (S. cerevisiae) (UniProt D6VTK4)
# [2] = system: Ste2p containing the substitution R58A; assay: Binding of α-factor to Ste2p with substitution R58A; design: species or system Saccharomyces cerevisiae
# Chain of UniProt D6VTK4 (D6VTK4 whole entry R58A): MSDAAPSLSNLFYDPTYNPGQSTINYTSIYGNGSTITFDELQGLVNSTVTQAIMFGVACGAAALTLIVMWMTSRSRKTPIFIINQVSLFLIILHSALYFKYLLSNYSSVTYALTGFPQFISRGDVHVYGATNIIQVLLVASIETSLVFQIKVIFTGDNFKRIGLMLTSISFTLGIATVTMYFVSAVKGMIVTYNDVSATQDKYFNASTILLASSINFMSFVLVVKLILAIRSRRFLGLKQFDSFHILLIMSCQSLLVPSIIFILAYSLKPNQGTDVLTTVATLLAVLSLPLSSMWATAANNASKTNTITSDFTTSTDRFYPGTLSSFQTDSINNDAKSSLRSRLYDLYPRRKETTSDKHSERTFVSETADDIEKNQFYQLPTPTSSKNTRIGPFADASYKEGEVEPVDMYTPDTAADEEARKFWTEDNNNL
fold higher Kd than wild-type Ste2p [1] [fold],Substance,fold lower affinity for α-factor relative to wild-type Ste2p [2] [fold]
10,α-factor (as used with the ste2 R58 mutants) (peptide),–
–,WHWLQLKPGQPMY [α-factor],~10
